According to the supplement of paper PMC10126150:
± gives the standard deviation of the averaged measurements.

test system: ATP; assay: switch fluorescence ratio, 500 uM ATP over buffer (Cy3 cluster intensity, sum of 5 cycles each) (fold (ratio)); higher = stronger signal-on switching upon ATP binding; sequences stand for … in TCGTCGGCAGCGTCAGATGTGTATAAGAGACAGTTTTTTTTTTTTTTTTTTTTTTTTT…TC; conditions: aptamer strand: ATP DNA aptamer (quencher-CACCTGGGGGAGTATTGCGGAGGAAGG + anchor), 100 nM annealed; ATP concentration: 500 uM
Summary of the method: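 Values give the fluorescence ratio for each switch-domain sequence, averaged from per-cluster ratios of summed target-cycle to summed buffer-cycle Cy3 intensity. The Cy3-labelled switching-strand clusters sat on a modified Illumina MiSeq flow-cell, were annealed to 100 nM quencher-labelled ATP aptamer, and were imaged in selection buffer, then after 15 min with 500 uM ATP at 22 °C. Five cycles ran with NaOH stripping and re-annealing between them, and clusters outside 100-1000 RFU were excluded.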
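Also: ATP exposure 15 min at 22 °C before imaging.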

| Sequence | switch fluorescence ratio |
| --- | --- |
| AGCTTAGGTC | 1.03 ± 0.029 |
| TTGAGTCGGA | 1.42 ± 0.7 |
| ATTAATCTGA | 0.96 ± 0.029 |
| AGACGGCAAA | 1.03 ± 0.044 |
| AACGGGATGG | 1.02 ± 0.036 |
| ATAGGATTTA | 0.989 ± 0.013 |
| CAGGCTGGTC | 0.992 ± 0.053 |
| TTCATGTTGG | 0.998 ± 0.019 |
| TGGGACATTT | 1.04 ± 0.057 |
| TCAGCGGGAG | 1.012 ± 0.0016 |
| TGAGGGCGTG | 1.01 ± 0.014 |
| GGAGTTTTGT | 0.9614 ± 0.0087 |
| TTATTCATTT | 1.001 ± 0.01 |
| CGATTCGGTA | 1.01 ± 0.042 |
| TTTCAAGAGT | 1.03 ± 0.034 |
| TATTGCGCTC | 1.09 ± 0.065 |
| CTCTTTAGCG | 1.01 ± 0.025 |
| ACAGGTTAAT | 1.02 ± 0.02 |
| GGCGCAACAG | 1.44 ± 0.14 |
| ATAGAATAGG | 0.9867 ± 0.0065 |
| ACTGATTTGT | 0.996 ± 0.048 |
| ATATGTGATG | 0.997 ± 0.021 |
| GGCTGAAAGT | 0.991 ± 0.016 |
| CGAAGTCTTT | 0.989 ± 0.044 |
| TCACATTTTT | 0.99 ± 0.076 |
| AACCTGTCGG | 1.01 ± 0.028 |

| Sequence | switch fluorescence ratio |
| --- | --- |
| GAGTAGTATT | 1 ± 0.02 |
| TGCTCCTTGC | 1.08 ± 0.062 |
| CGGAGGATGG | 0.9867 ± 0.0084 |
| ACGATGGGGA | 1.04 ± 0.034 |
| TTTTCAAACC | 0.9953 ± 0.0034 |
| GCATCAGGAG | 1.05 ± 0.021 |
| CAACGCCTCC | 3.52 ± 0.082 |
| ATATTGTCGT | 1.011 ± 0.0053 |
| TAGGATCGGA | 0.96 ± 0.032 |
| GAGGCGGGTG | 1.01 ± 0.013 |
| GAAATTGCAT | 0.996 ± 0.02 |
| TTTAGGCTTT | 1 ± 0.012 |
| TAAGTTGTTG | 0.993 ± 0.042 |
| GGTATAAGAT | 1.01 ± 0.013 |
| ACTATGAGCT | 1.04 ± 0.041 |
| AGTAGATTCC | 1.042 ± 0.01 |
| ACAGCGTGTG | 1.03 ± 0.011 |
| ATAAGTCCGA | 0.99 ± 0.026 |
| GGGGGGACGT | 1.02 ± 0.035 |
| GACGGTGTGC | 1.077 ± 0.0059 |
| GCTGCTGGGC | 0.968 ± 0.036 |
| GTTTAATGGA | 1.01 ± 0.021 |
| TAAGCTGACG | 0.9973 ± 0.0098 |
| TATTAGAAGC | 1.01 ± 0.046 |
| ACGTGTGTTT | 1.01 ± 0.017 |
| CCTGGGTAGC | 1.1 ± 0.045 |

| Sequence | switch fluorescence ratio |
| --- | --- |
| CAGTGGTACG | 1.02 ± 0.065 |
| ATCTTTCGAA | 1.03 ± 0.026 |
| TAGTTCTGTT | 0.983 ± 0.0077 |
| GTTTGATCGG | 0.97 ± 0.013 |
| ATGGTCGATG | 0.965 ± 0.02 |
| AGGTTTATAT | 0.999 ± 0.016 |
| CCAAGGGTAT | 0.9873 ± 0.0019 |
| TTTTAAAGCT | 1.09 ± 0.039 |
| TATCGTTGTA | 0.93881 ± 0.00024 |
| TCGGGATAGC | 1.08 ± 0.052 |
| ATTGAAAGTG | 0.9859 ± 0.0074 |
| GTGGTAGGGT | 1.02 ± 0.02 |
| AATAAGTTGT | 0.999 ± 0.035 |
| GGGTAGCAGG | 1.04 ± 0.01 |
| AGAAGATTGT | 0.989 ± 0.013 |
| TAATTTGGAA | 1.009 ± 0.0095 |
| CCAGGGTTTT | 1.06 ± 0.1 |
| ATGGGCAGGG | 0.9931 ± 0.0056 |
| TGTGGTTTTT | 1.01 ± 0.031 |
| AGAAAGCGAC | 1.17 ± 0.093 |
| ATTAAGGTCA | 1.064 ± 0.0069 |
| TTTGCTAGTT | 0.988 ± 0.009 |
| ATTTGTCGTA | 0.997 ± 0.029 |
| GGGGGACTAT | 1.03 ± 0.023 |
| AGAGTTAAAA | 1.04 ± 0.0077 |
| GCCAGATTAA | 0.976 ± 0.014 |

| Sequence | switch fluorescence ratio |
| --- | --- |
| ATTCTTCCGC | 3.88 ± 0.16 |
| CTGGCTGGCA | 0.995 ± 0.01 |
| TTCGGGAGAA | 1.01 ± 0.052 |
| ATGGAGGGGA | 1 ± 0.021 |
| TTTTGATTTA | 1 ± 0.053 |
| TTCCATGCGG | 1.02 ± 0.037 |
| AAGGGATGCG | 1.09 ± 0.097 |
| CAAGATATAT | 1 ± 0.016 |
| AAATAAAATT | 0.982 ± 0.03 |
| TGTTTGACGA | 0.991 ± 0.05 |
| TTGGTCGCCC | 1.08 ± 0.17 |
| TACATGTTAG | 1.01 ± 0.024 |
| TTTCGGTTCT | 0.991 ± 0.012 |
| TCGGAATTGT | 0.9992 ± 0.0056 |
| GGTTAGAAAT | 0.98 ± 0.016 |
| TGAGACTAGT | 0.989 ± 0.023 |
| TTATCTGGGC | 0.9757 ± 0.0037 |
| GGGGGTAGAG | 0.988 ± 0.015 |
| GGGCGCAAGG | 1.02 ± 0.029 |
| TGGATTTAGA | 1.02 ± 0.017 |
| TAGCTTGGGA | 1.01 ± 0.026 |
| CTCGGAATGG | 1.08 ± 0.043 |
| ACACTGGGCA | 1.022 ± 0.0053 |
| TTACACACAC | 1.53 ± 0.073 |
| GGGTTTCACG | 0.983 ± 0.023 |
| AAGTAGCCGT | 1.19 ± 0.19 |

| Sequence | switch fluorescence ratio |
| --- | --- |
| ATTTGAGCAG | 1.01 ± 0.011 |
| AATGGTGTAG | 1.003 ± 0.0013 |
| TGGGTAGTAC | 1.04 ± 0.039 |
| ATTACAGGAC | 1.08 ± 0.012 |
| ACGGGCATTT | 0.994 ± 0.04 |
| AATTTGAATT | 0.98 ± 0.013 |
| TAGAGCAGGT | 1.03 ± 0.011 |
| GGTTGAATTA | 0.979 ± 0.051 |
| GTCGATTGGG | 1.001 ± 0.0012 |
| TGGACCGGGC | 1 ± 0.025 |
| GGACAAACGT | 1.2 ± 0.052 |
| GATAATAGGG | 0.99 ± 0.045 |
| GGGACGGGGC | 1.06 ± 0.041 |
| TTGTTCAAGG | 0.981 ± 0.015 |
| GGCCTAAAAG | 0.978 ± 0.022 |
| TGGGTGCACG | 0.996 ± 0.057 |
| AGCGGTCTGG | 1 ± 0.013 |
| GGGCCAAGGA | 1.01 ± 0.02 |
| AAGTCGCTGT | 1.02 ± 0.016 |
| ATTTAGGTAG | 1.02 ± 0.024 |
| GTGATATTGT | 1.01 ± 0.011 |
| TTATGTTTAG | 0.976 ± 0.045 |
| AGTTGTATGT | 0.951 ± 0.037 |
| AGGTTTTGAT | 1.01 ± 0.019 |
| TAGAATCAGC | 0.99 ± 0.07 |
| TTTAATGATT | 1.05 ± 0.021 |

| Sequence | switch fluorescence ratio |
| --- | --- |
| CGATGCACGG | 1.106 ± 0.0049 |
| TAGTCCAAAT | 0.9738 ± 0.0018 |
| ATGTGGTATG | 0.984 ± 0.031 |
| GGCTCGGCAG | 1.05 ± 0.043 |
| TGGGATTGTA | 0.987 ± 0.024 |
| CGTGACATTG | 1.01 ± 0.013 |
| AATATTCGTT | 0.997 ± 0.039 |
| GGGAAGGGTA | 1 ± 0.033 |
| AAGAACTTAG | 1.026 ± 0.0074 |
| CCAGGGGTGC | 1.48 ± 0.05 |
| TACTGCAGAT | 1.002 ± 0.0025 |
| AATGGTTTAT | 0.9489 ± 0.0065 |
| ACAAGGCCTT | 0.993 ± 0.031 |
| TAGGGGGAAA | 1.01 ± 0.024 |
| CGCTGTGATG | 1.013 ± 0.0053 |
| TGAATTTTAC | 1.03 ± 0.04 |
| GTATCCCCCG | 1.03 ± 0.041 |
| TCGTTTTTTG | 0.984 ± 0.016 |
| ATATTTGACA | 1.01 ± 0.026 |
| TTTTTCGCTG | 1.03 ± 0.022 |
| CATTTTCTAG | 1.03 ± 0.044 |
| AGGACTAAAG | 0.982 ± 0.013 |
| ATGAGTGTGT | 0.984 ± 0.015 |
